Reference: paper PMC9482650, “Quantitative fragmentomics allow affinity mapping of interactomes” (Nature Communications, 2022)

T1: LRRC7, Q96NW7
T1 sequence (Q96NW7 1440-1537, limits assumed, looked up): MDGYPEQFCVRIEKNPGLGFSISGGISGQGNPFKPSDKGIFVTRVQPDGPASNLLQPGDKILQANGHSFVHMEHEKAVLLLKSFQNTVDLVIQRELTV

T2: PTPN13_1, Q12923
T2 sequence (Q12923 1088-1188, limits assumed, looked up): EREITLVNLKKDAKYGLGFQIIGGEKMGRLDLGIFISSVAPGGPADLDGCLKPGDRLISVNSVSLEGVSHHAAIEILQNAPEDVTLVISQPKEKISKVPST

T3: MPDZ_5, O75970
T3 sequence (O75970 695-796, limits assumed, looked up): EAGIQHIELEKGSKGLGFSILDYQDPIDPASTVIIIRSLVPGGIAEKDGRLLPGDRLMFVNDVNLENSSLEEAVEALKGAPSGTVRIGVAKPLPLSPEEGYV

T4: NHERF3_4, Q5T2W1
T4 sequence (Q5T2W1 373-468, limits assumed, looked up): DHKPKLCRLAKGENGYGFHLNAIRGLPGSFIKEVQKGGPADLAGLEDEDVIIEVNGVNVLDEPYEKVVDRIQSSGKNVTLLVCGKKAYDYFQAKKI

T5: SNTB1, Q13884
T5 sequence (Q13884 107-205, limits assumed, looked up): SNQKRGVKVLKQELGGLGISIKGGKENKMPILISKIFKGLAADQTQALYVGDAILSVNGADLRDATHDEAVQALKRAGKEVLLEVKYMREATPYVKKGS

T6: MPP2, Q14168
T6 sequence (Q14168 180-250, limits assumed, looked up): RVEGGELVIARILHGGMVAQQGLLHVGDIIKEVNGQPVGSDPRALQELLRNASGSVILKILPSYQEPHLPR

T7: CARD11, Q9BXL7
T7 sequence (Q9BXL7 662-765, limits assumed, looked up): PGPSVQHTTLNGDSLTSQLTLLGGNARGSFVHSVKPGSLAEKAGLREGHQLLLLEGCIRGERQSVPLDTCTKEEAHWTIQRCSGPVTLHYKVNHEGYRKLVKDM

T8: SNTG2, Q9NY99
T8 sequence (Q9NY99 68-166, limits assumed, looked up): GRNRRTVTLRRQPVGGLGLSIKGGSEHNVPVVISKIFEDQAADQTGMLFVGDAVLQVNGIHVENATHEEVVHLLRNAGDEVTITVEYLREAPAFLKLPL

T9: HTRA4, P83105
T9 sequence (P83105 378-476, limits assumed, looked up): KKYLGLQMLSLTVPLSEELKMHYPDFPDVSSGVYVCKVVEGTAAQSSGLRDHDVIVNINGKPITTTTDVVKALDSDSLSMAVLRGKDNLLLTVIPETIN

T10: SIPA1L2, Q9P2F8
T10 sequence (Q9P2F8 945-1036, limits assumed, looked up): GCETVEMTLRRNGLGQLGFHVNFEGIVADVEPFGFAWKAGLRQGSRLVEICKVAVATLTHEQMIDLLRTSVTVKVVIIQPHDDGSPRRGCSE

T11: FRMPD1, Q5SYB0
T11 sequence (Q5SYB0 52-145, limits assumed, looked up): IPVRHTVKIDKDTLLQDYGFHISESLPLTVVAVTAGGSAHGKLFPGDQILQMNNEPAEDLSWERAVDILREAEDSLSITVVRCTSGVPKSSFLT


Experiments:
Assay in all cases: holdup assay
Design in all cases: key: below the threshold = too weak to quantify, mostly under pKd 3.1 to 4
Conditions in all cases: plain residues with an end cap or a label only (N-terminal biotin on a linker: ado-ado)
LRRC7, Q96NW7 = target: T1, LRRC7, Q96NW7
NHERF2_2, Q15599 = target: NHERF2_2, Q15599
NHERF2_2, Q15599, sequence (Q15599 142-238): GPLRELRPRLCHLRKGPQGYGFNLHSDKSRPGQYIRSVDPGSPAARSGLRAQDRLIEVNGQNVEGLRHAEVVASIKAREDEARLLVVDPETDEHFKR

MAGI3_2, Q5TCQ9 = target: MAGI3_2, Q5TCQ9
MAGI3_2, Q5TCQ9, sequence (Q5TCQ9 398-503): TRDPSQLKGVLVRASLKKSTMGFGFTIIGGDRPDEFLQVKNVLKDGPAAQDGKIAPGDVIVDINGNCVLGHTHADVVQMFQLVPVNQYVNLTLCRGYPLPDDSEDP

PTPN13_1, Q12923 = target: T2, PTPN13_1, Q12923
Inadl_1, Q8NI35 = target: Inadl_1, Q8NI35
Inadl_1, Q8NI35, sequence (Q8NI35 113-229): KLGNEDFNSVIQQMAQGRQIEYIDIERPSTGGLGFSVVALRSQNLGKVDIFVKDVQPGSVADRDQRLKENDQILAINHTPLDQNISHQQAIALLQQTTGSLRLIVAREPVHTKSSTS

MPDZ_5, O75970 = target: T3, MPDZ_5, O75970
GRIP2_3, Q9C0E4 = target: GRIP2_3, Q9C0E4
GRIP2_3, Q9C0E4, sequence (Q9C0E4 238-339): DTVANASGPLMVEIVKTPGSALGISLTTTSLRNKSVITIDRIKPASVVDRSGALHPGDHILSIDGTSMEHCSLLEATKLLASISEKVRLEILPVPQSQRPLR

NHERF3_4, Q5T2W1 = target: T4, NHERF3_4, Q5T2W1
TJP1_3, Q07157 = target: TJP1_3, Q07157
TJP1_3, Q07157, sequence (Q07157 416-512): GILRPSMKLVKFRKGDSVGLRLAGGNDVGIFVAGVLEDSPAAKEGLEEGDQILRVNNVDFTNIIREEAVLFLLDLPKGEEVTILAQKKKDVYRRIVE

FRMPD2_2, Q68DX3 = target: FRMPD2_2, Q68DX3
FRMPD2_2, Q68DX3, sequence (Q68DX3 944-1038): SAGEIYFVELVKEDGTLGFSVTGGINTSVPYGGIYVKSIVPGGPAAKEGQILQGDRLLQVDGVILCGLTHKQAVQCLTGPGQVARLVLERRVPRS

SNTB1, Q13884 = target: T5, SNTB1, Q13884
MPP2, Q14168 = target: T6, MPP2, Q14168
CARD11, Q9BXL7 = target: T7, CARD11, Q9BXL7
DLG1_2, Q12959 = target: DLG1_2, Q12959
DLG1_2, Q12959, sequence (Q12959 314-412): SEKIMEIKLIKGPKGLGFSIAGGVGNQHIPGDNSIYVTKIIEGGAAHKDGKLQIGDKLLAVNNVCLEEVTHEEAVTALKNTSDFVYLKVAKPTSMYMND

Inadl_5, Q8NI35 = target: Inadl_5, Q8NI35
Inadl_5, Q8NI35, sequence (Q8NI35 673-780): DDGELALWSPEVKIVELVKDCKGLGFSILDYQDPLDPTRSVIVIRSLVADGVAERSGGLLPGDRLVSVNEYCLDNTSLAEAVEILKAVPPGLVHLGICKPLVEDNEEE

PICK1, Q9NRD5 = target: PICK1, Q9NRD5
PICK1, Q9NRD5, sequence (Q9NRD5 17-115): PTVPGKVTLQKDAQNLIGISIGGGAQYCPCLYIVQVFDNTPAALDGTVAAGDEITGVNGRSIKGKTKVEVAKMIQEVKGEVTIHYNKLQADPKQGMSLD

LAP2, Q96RT1 = target: LAP2, Q96RT1
LAP2, Q96RT1, sequence (Q96RT1 other isoform, or with tags, fused parts or gaps): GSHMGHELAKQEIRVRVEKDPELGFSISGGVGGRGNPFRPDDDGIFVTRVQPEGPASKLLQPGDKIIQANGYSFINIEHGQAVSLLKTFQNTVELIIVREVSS

SNTG2, Q9NY99 = target: T8, SNTG2, Q9NY99
GRASP, Q7Z6J2 = target: GRASP, Q7Z6J2
GRASP, Q7Z6J2, sequence (Q7Z6J2 96-193): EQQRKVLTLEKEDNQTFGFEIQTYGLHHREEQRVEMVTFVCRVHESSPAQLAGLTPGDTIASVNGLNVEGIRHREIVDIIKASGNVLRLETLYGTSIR

HTRA1, Q92743 = target: HTRA1, Q92743
HTRA1, Q92743, sequence (Q92743 360-477): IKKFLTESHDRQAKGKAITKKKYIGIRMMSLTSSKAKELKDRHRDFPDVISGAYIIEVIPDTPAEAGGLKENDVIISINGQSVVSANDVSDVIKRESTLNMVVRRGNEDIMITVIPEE

DLG4_2, P78352 = target: DLG4_2, P78352
DLG4_2, P78352, sequence (P78352 155-259): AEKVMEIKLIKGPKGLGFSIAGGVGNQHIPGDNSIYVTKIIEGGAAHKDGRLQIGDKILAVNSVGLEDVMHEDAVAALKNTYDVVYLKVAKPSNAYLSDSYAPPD

HTRA4, P83105 = target: T9, HTRA4, P83105
SIPA1L2, Q9P2F8 = target: T10, SIPA1L2, Q9P2F8
DLG4_3, P78352 = target: DLG4_3, P78352
DLG4_3, P78352, sequence (P78352 306-403): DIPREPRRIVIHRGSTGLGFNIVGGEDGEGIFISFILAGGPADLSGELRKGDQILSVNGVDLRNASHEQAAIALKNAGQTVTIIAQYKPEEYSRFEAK

NHERF4_1, Q86UT5-2 = target: NHERF4_1, Q86UT5-2
NHERF4_1, Q86UT5-2, sequence (Q86UT5 other isoform, or with tags, fused parts or gaps): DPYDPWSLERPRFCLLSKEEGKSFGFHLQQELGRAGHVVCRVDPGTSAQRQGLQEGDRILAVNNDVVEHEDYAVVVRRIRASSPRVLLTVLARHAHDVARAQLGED

FRMPD1, Q5SYB0 = target: T11, FRMPD1, Q5SYB0

Row | Binder | pKd (LRRC7, Q96NW7) | pKd (NHERF2_2, Q15599) | pKd (MAGI3_2, Q5TCQ9) | pKd (PTPN13_1, Q12923) | pKd (Inadl_1, Q8NI35) | pKd (MPDZ_5, O75970) | pKd (GRIP2_3, Q9C0E4) | pKd (NHERF3_4, Q5T2W1) | pKd (TJP1_3, Q07157) | pKd (FRMPD2_2, Q68DX3) | pKd (SNTB1, Q13884) | pKd (MPP2, Q14168) | pKd (CARD11, Q9BXL7) | pKd (DLG1_2, Q12959) | pKd (Inadl_5, Q8NI35) | pKd (PICK1, Q9NRD5) | pKd (LAP2, Q96RT1) | pKd (SNTG2, Q9NY99) | pKd (GRASP, Q7Z6J2) | pKd (HTRA1, Q92743) | other results
1 | QYPGSPDSWV [PKP4, Q99569] | 4.97 | below the threshold | below the threshold | below the threshold | below the threshold | 3.58 | below the threshold | below the threshold | 3.68 | 4.34 | 4.36 | below the threshold | below the threshold | 4.68 | 3.87 | below the threshold | 5.5 | 3.62 | 3.52 | 4.78 | pKd (DLG4_2, P78352): 4.62; pKd (HTRA4, P83105): 3.48; pKd (SIPA1L2, Q9P2F8): below the threshold; pKd (DLG4_3, P78352): below the threshold; pKd (NHERF4_1, Q86UT5-2): 3.57; pKd (FRMPD1, Q5SYB0): below the threshold
2 | GDGLDDEIAV [NOS1AP, O75052] | below the threshold | below the threshold | 3.98 | below the threshold | below the threshold | below the threshold | below the threshold | below the threshold | below the threshold | below the threshold | below the threshold | below the threshold | below the threshold | below the threshold | below the threshold | 4.38 | 3.67 | below the threshold | below the threshold | 4.68 | pKd (DLG4_2, P78352): below the threshold; pKd (HTRA4, P83105): 3.9; pKd (SIPA1L2, Q9P2F8): below the threshold; pKd (DLG4_3, P78352): below the threshold; pKd (NHERF4_1, Q86UT5-2): below the threshold; pKd (FRMPD1, Q5SYB0): below the threshold
3 | YPKQMPLSQV [FZD8, Q9H461] | below the threshold | below the threshold | 4.44 | below the threshold | below the threshold | below the threshold | below the threshold | below the threshold | below the threshold | below the threshold | below the threshold | below the threshold | below the threshold | below the threshold | below the threshold | below the threshold | below the threshold | below the threshold | below the threshold | below the threshold | pKd (DLG4_2, P78352): below the threshold; pKd (HTRA4, P83105): 3.94; pKd (SIPA1L2, Q9P2F8): below the threshold; pKd (DLG4_3, P78352): below the threshold; pKd (NHERF4_1, Q86UT5-2): below the threshold; pKd (FRMPD1, Q5SYB0): below the threshold

Further lines, with some results ahead:

Row | pKd (LRRC7, Q96NW7) | pKd (NHERF2_2, Q15599) | pKd (MAGI3_2, Q5TCQ9) | pKd (PTPN13_1, Q12923) | pKd (Inadl_1, Q8NI35) | pKd (MPDZ_5, O75970) | pKd (GRIP2_3, Q9C0E4) | pKd (NHERF3_4, Q5T2W1) | pKd (TJP1_3, Q07157) | pKd (FRMPD2_2, Q68DX3) | pKd (SNTB1, Q13884) | pKd (MPP2, Q14168) | pKd (CARD11, Q9BXL7) | pKd (DLG1_2, Q12959) | pKd (Inadl_5, Q8NI35) | pKd (PICK1, Q9NRD5) | pKd (LAP2, Q96RT1) | pKd (SNTG2, Q9NY99) | pKd (GRASP, Q7Z6J2) | pKd (HTRA1, Q92743) | Binder | other results
4 | below the threshold | 4.34 | below the threshold | below the threshold | below the threshold | below the threshold | below the threshold | below the threshold | below the threshold | below the threshold | below the threshold | below the threshold | 3.53 | below the threshold | below the threshold | 4.09 | below the threshold | below the threshold | 3.85 | 3.97 | LGHTPFVDEL [UQCRC2, P22695] | pKd (DLG4_2, P78352): below the threshold; pKd (HTRA4, P83105): 3.98; pKd (SIPA1L2, Q9P2F8): below the threshold; pKd (DLG4_3, P78352): below the threshold; pKd (NHERF4_1, Q86UT5-2): 4.2; pKd (FRMPD1, Q5SYB0): below the threshold
5 | below the threshold | below the threshold | 4.15 | below the threshold | below the threshold | below the threshold | below the threshold | below the threshold | below the threshold | below the threshold | 3.64 | below the threshold | below the threshold | 4.23 | below the threshold | below the threshold | below the threshold | below the threshold | 3.92 | below the threshold | QNRIITKTDV [SMCHD1, A6NHR9] | pKd (DLG4_2, P78352): 4.15; pKd (HTRA4, P83105): below the threshold; pKd (SIPA1L2, Q9P2F8): below the threshold; pKd (DLG4_3, P78352): below the threshold; pKd (NHERF4_1, Q86UT5-2): below the threshold; pKd (FRMPD1, Q5SYB0): below the threshold
